This is an account of results in patent US20200123252A1 (LAMKAP BIO BETA, published 2020).

Numbering of substitutions follows the chain as printed.

Assay [1] concerns the target T1, human CD47 on MKN45 cells (human, UniProt Q08722 19-323).
T1 construct: whole, on cells; also called IAP
Kind of assay: inhibition of SIRPα-mouseFc binding to CD47 on MKN45 cells, imaging (CX5). The source says:
The detection of bound SIRPα cell-based assay monitoring the interaction of soluble SIRPα with human CD47 expressed at the surface of MKN45 is used for the detection of the blocking activity. Dose-response experiments with bispecific antibodies according to the invention allow determination of an IC50 value.
MKN45 cancer cells, expressing both CD47 and CEACAM5, are stained with CFSE violet to allow the imaging system (CX5) to detect the cells. Briefly, 3,000 stained MKN45 cells per well are seeded in a 384 optical well plate (Costar) and incubated for 50 minutes with increased concentrations of bispecific antibodies of the invention (1.9 pM to 333 nM, in quadruplicates). Then, a fixe concentration of SIRPα-mouseFc premixed with anti-mouse IgG-Fc AF647 coupled antibody (Jackson Immunoresearch diluted 1:2000) is added at 50 ng/mL final. After an incubation of 3H30 plates are acquired with the imaging system (CX5, Thermofisher) and fluorescence signals emitted by the detected bound SIRPα is recorded by the software dedicated to the imaging system. Fluorescence signals are plotted according to the dose range tested and IC50 are calculated by the software (Prism, Graphpad).

In assay [2] the target is T2, human CEACAM5 on MKN-45 cells (human, UniProt P06731 35-685).
T2 construct: Endogenous CEACAM5 on MKN-45 gastric adenocarcinoma cells, which also carry CD47 (and CEACAM6); also called CD66e; MKN45 CEA+ cancer cells
T2 sequence: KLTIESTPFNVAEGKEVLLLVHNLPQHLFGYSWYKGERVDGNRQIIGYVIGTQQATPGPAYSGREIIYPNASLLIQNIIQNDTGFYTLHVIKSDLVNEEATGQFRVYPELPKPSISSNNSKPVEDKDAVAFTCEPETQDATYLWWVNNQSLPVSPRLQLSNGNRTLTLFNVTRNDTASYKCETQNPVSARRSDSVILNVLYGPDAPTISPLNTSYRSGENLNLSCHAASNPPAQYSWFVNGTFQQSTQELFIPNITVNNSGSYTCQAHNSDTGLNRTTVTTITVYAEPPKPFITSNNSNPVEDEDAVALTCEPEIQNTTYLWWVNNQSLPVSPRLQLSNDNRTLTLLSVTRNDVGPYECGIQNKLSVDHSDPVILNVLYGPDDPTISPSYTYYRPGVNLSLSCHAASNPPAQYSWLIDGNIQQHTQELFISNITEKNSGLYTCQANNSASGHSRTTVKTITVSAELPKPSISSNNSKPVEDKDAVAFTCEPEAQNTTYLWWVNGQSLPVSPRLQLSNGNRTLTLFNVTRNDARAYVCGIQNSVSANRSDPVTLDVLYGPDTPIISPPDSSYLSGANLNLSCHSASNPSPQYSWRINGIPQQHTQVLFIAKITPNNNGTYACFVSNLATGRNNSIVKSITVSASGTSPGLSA
Kind of assay: flow cytometry on MKN45 CEA+ cells (carry CEACAM5 and CD47).

For assay [3], the target named is T2, human CEACAM5 on MKN-45 cells. In words: FACS binding to MKN-45 cells, which express CD47, CEACAM5 and CEACAM6; K2AC39 is cross-reactive to CEACAM6.
Assay [4] shares this target. Kind of assay: flow cytometry on MKN45 CEA+ cells (carry CEACAM5 and CD47); MKN45 CEA+ cancer cells.
For assay [5] the target is unchanged. Kind of assay: binding to MKN-45 cells (MFI), without shed CEA.
Assay [6] shares this target. In words: binding to MKN-45 cells (MFI), in the presence of 200 ng/mL shed CEA.
The target in assay [7] is T3, shed CEA (soluble CEA) (human, UniProt P06731 35-685, limits assumed).
T3 sequence (looked up): T2 sequence with K364E
Kind of assay: cell-based or functional assay.

The target in assay [8] is T4, human CEACAM6 (human, UniProt P40199 35-320).
T4 construct: also called CD66c; biotinylated recombinant human CEACAM6
T4 sequence (looked up): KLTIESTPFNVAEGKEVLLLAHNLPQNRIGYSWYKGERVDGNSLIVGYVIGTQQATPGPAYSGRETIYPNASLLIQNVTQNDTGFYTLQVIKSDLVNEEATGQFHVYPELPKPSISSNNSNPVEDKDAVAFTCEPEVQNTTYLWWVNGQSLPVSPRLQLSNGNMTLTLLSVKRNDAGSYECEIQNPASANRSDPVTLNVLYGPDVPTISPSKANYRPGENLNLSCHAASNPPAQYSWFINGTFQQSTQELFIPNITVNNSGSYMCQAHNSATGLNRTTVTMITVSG
In words: ELISA on biotinylated recombinant human CEACAM6 captured on streptavidin, bivalent mAb. The protocol:
Biotinylated recombinant human CEACAM5 or CEACAM6 proteins are captured at 0.5 μg/mL in a streptavidin coated 96-well microplate. The plate is washed and monoclonal anti-CEA bivalent antibodies of the present invention are added as a broad concentration-range (e.g. from […] to 1 μg/mL) and incubated during 1 hr. The plate is washed and bound antibodies are detected with an anti-human IgG(Fc)-HRP (Jackson ImmunoResearch). […] The fluorescence signal is measured on a Synergy HT plate reader (Biotek).

B1: K2AC27 CEA×CD47 bispecific antibody (bispecific antibody, human IgG1, kappa, lambda)
heavy: not shown
light 1: QSVLTQPPSVSGAPGQRVTISCTGSSSNIGYADKVHWYQQLPGTAPKLLIYNNSDRPSGVPDRFSGSKSGTSASLAITGLQAEDEADYYCQSYDGYNMLTAVFGGGTKLTVLGQPKAAPSVTLFPPSSEELQANKATLVCLISDFYPGAVTVAWKADSSPVKAGVETTTPSKQSNNKYAASSYLSLTPEQWKSHRSYSCQVTHEGSTVEKTVAPTECS
light 2: not shown
notes: κλ body, human IgG1, common heavy chain; CEACAM5 arm light chain 2C11 (AC27)
For the molecule B1, the IC50 in assay [1] came to 0.86 nM. Besides, in assay [2], a half-maximal response (EC50) required 12.5 nM.

B2: K2AC13 CEA×CD47 bispecific antibody (bispecific antibody, human IgG1, kappa, lambda)
heavy: not shown
light 1: QSALTQPASVSGSPGQSITISCTGTSSNVRYAAGVSWYQQHPGKAPKLMIYEVSNRPSGVSNRFSGSKSGNTASLTISGLQAEDEADYYCSSWDFEHGPAAKVFGGGTKLTVLGQPKAAPSVTLFPPSSEELQANKATLVCLISDFYPGAVTVAWKADSSPVKAGVETTTPSKQSNNKYAASSYLSLTPEQWKSHRSYSCQVTHEGSTVEKTVAPTECS
light 2: not shown
notes: κλ body, human IgG1, common heavy chain; CEACAM5 arm light chain 2B8 (AC13)
Regarding B2, the IC50 in assay [1] was found to be 4 nM. Also, the response in assay [2] was half-maximal at 190 nM (EC50).

B3: K2AC28 CEA×CD47 bispecific antibody (bispecific antibody, human IgG1, kappa, lambda)
heavy: not shown
light 1: NFMLTQPHSVSESPGKTVTISCTRSSGSINDITVHWYQQRPGSSPTTVIYGYNARPSGVPDRFSGSIDSSSNSASLTISGLKTEDEADYYCQSWDGHGSAYVFGGGTKLTVLGQPKAAPSVTLFPPSSEELQANKATLVCLISDFYPGAVTVAWKADSSPVKAGVETTTPSKQSNNKYAASSYLSLTPEQWKSHRSYSCQVTHEGSTVEKTVAPTECS
light 2: not shown
notes: κλ body, human IgG1, common heavy chain; CEACAM5 arm light chain C11 (AC28)
In turn, B3 yielded an IC50 in assay [1] of 0.95 nM. The molecule further returned an EC50 in assay [2] of 52.5 nM.

B4: K2AC26 CEA×CD47 bispecific antibody (bispecific antibody, human IgG1, kappa, lambda)
heavy: not shown
light 1: QSALTQPASVSGSPGQSITISCTGTSSDVKYANAVSWYQQHPGKAPKLMIYSNSIRPSGVSNRFSGSKSGNTASLTISGLQAEDEADYYCSSYDPRGNLLIRVFGGGTKLTVLGQPKAAPSVTLFPPSSEELQANKATLVCLISDFYPGAVTVAWKADSSPVKAGVETTTPSKQSNNKYAASSYLSLTPEQWKSHRSYSCQVTHEGSTVEKTVAPTECS
light 2: not shown
notes: κλ body, human IgG1, common heavy chain; CEACAM5 arm light chain 2F7 (AC26)
B4 registered an IC50 in assay [1] of 0.32 nM. This molecule also came in with an EC50 in assay [2] of 12.7 nM.

B5: K2AC29 CEA×CD47 bispecific antibody (bispecific antibody, human IgG1, kappa, lambda)
heavy: not shown
light 1: QSALTQPASVSGSPGQSITISCTGTSSDVEFTNGVSWYQQHPGKAPKLMIYGFSSRPSGVSNRFSGSKSGNTASLTISGLQAEDEADYYCSSYDPPWHLLARVFGGGTKLTVLGQPKAAPSVTLFPPSSEELQANKATLVCLISDFYPGAVTVAWKADSSPVKAGVETTTPSKQSNNKYAASSYLSLTPEQWKSHRSYSCQVTHEGSTVEKTVAPTECS
light 2: not shown
notes: κλ body, human IgG1, common heavy chain; CEACAM5 arm light chain 2B5 (AC29)
As for B5, the IC50 in assay [1] came out at 0.72 nM. The EC50 in assay [2] stood at 14.5 nM.

B6: K2AC25 CEA×CD47 bispecific antibody (bispecific antibody, human IgG1, kappa, lambda)
heavy: not shown
light 1: QSVLTQPPSVSAAPGQKVTISCSGSSSNIGITPVSWYQQLPGTAPKLLIYSNNFRPSGIPDRFSGSKSGTSATLGITGLQTGDEADYYCGTWDRTGHEIRPVFGGGTKLTVLGQPKAAPSVTLFPPSSEELQANKATLVCLISDFYPGAVTVAWKADSSPVKAGVETTTPSKQSNNKYAASSYLSLTPEQWKSHRSYSCQVTHEGSTVEKTVAPTECS
light 2: not shown
notes: κλ body, human IgG1, common heavy chain; CEACAM5 arm light chain 2F4 (AC25)
For the molecule B6, the IC50 in assay [1] worked out at 0.22 nM. The molecule also showed an EC50 in assay [2] of 13 nM.

B7: K2AC39 CD47×CEA bispecific antibody (bispecific antibody, human IgG1, kappa, lambda)
heavy: not shown
light 1: QSVLTQPPSVSAAPGQKVTISCSGSSSEITASGVSWYQQLPGTAPKLLIYDNNKRPSGIPDRFSGSKSGTSATLGITGLQTGDEADYYCGTWDFPPSRFVFGGGTKLTVLGQPKAAPSVTLFPPSSEELQANKATLVCLISDFYPGAVTVAWKADSSPVKAGVETTTPSKQSNNKYAASSYLSLTPEQWKSHRSYSCQVTHEGSTVEKTVAPTECS
light 2: not shown
notes: κλ body with common heavy chain; CEACAM5/CEACAM6 arm light chain 1B2 (AC39)
For B7, in assay [3], the “EC50 (read off the curve)” value was about 3 µg/mL.

B8: K2AC5 CEA×CD47 bispecific antibody (bispecific antibody, human IgG1, kappa, lambda)
heavy: not shown
light 1: QSVLTQPPSVSAAPGQKVTISCSGSSSNIGYGLVSWYQQLPGTAPKLLIYAGNLRPSGIPDRFSGSKSGTSATLGITGLQTGDEADYYCGTWDFNYGVVFGGGTKLTVLGQPKAAPSVTLFPPSSEELQANKATLVCLISDFYPGAVTVAWKADSSPVKAGVETTTPSKQSNNKYAASSYLSLTPEQWKSHRSYSCQVTHEGSTVEKTVAPTECS
light 2: not shown
notes: κλ body, human IgG1, common heavy chain; CEACAM5 arm light chain 1D9 (AC5) with lambda constant domain, CD47 arm kappa light chain KA3 (K2); also called CD47×CEA bispecific antibody K2AC5
As to B8, in assay [1], the IC50 was 0.4 nM. In assay [4], this molecule showed an EC50 of 11.3 nM. For the same molecule, the “EC50 (read off the curve)” value in assay [5] and in assay [6] was about 0.3 µg/mL each time. In assay [7], the “shift of EC50 of the phagocytosis index curve of MKN-45 cells by 200 ng/mL shed CEA” value was under 4 fold.

B9: K2AC18 CEA×CD47 bispecific antibody (bispecific antibody, human IgG1, kappa, lambda)
heavy: not shown
light 1: SYVLTQPPSVSVAPGKTARITCGGNGIGDASVHWYQQKPGQAPVLVIYSTTTRPSGIPERFSGSNSGNTATLTISRVEAGDEADYYCQVWDGFGPRHRAVFGGGTKLTVLGQPKAAPSVTLFPPSSEELQANKATLVCLISDFYPGAVTVAWKADSSPVKAGVETTTPSKQSNNKYAASSYLSLTPEQWKSHRSYSCQVTHEGSTVEKTVAPTECS
light 2: not shown
notes: κλ body, human IgG1, common heavy chain; CEACAM5 arm light chain 1A2 (AC18)
B9 gave an IC50 in assay [1] of 7 nM. This molecule also showed an EC50 in assay [2] of 132 nM.

B10: AC22 anti-CEA bivalent monoclonal antibody (antibody, human IgG1, lambda, V domains shown)
VH: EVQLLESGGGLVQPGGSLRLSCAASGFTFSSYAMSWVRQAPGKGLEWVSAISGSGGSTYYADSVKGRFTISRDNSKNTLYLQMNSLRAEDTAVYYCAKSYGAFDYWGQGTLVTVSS
VL: QSVLTQPPSVSAAPGQKVTISCSGSSSNIANGIVSWYQQLPGTAPKLLIYFDNLRPSGIPDRFSGSKSGTSATLGITGLQTGDEADYYCGTWDFSYGIVFGGGTKLTVLG
notes: also called 1G6; anti-CEA bivalent mAb of K2AC22
On to B10, for which the binding result in assay [8] is recorded as “no binding”.

B11: K2AC10 CEA×CD47 bispecific antibody (bispecific antibody, human IgG1, kappa, lambda)
heavy: not shown
light 1: QSVLTQPPSVSGAPGQRVTISCTGSSSNIYANSNVHWYQQLPGTAPKLLIYSGSNRPSGVPDRFSGSKSGTSASLAITGLQAEDEADYYCQSYDPAHNLLTAVFGGGTKLTVLGQPKAAPSVTLFPPSSEELQANKATLVCLISDFYPGAVTVAWKADSSPVKAGVETTTPSKQSNNKYAASSYLSLTPEQWKSHRSYSCQVTHEGSTVEKTVAPTECS
light 2: not shown
notes: κλ body, human IgG1, common heavy chain; CEACAM5 arm light chain 1D5 (AC10)
In assay [1], B11 yielded an IC50 of 0.22 nM. In assay [2], this molecule displayed an EC50 of 1.15 nM.
